What was measured:
[1] = tested on: MS2 coat protein; test: apparent KD of MS2 coat protein; designed switch direction (-1 OFF switch, 1 ON switch): -1; higher = weaker reporter binding; details: Eterna round: R98
Method: (§1)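 RNA-MaP: designed FMN/MS2 RNA switches (84 nt design region) are transcribed on-chip within common flanks and titrated with SNAP-549-labelled MS2 coat protein (about 1-3000 nM) in 100 mM Tris pH 7.5, 80 mM KCl, 4 mM MgCl2, without or with 200 uM FMN. Median apparent KD per design; activation ratio = KD,OFF / KD,ON.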

[2] = tested on: MS2 coat protein; test: apparent KD of MS2 coat protein; designed switch direction (-1 OFF switch, 1 ON switch): 1; higher = weaker reporter binding; details: Eterna round: R98
Method: as §1

Row | Sequence | apparent KD of MS2 coat protein ([1]; input ligand: FMN 200 uM) | apparent KD of MS2 coat protein ([1]; input ligand: none) | apparent KD of MS2 coat protein ([2]; input ligand: FMN 200 uM) | apparent KD of MS2 coat protein ([2]; input ligand: none)
1 | AAAAUAAAGGCAGGAUAUACAUGAAUAAAUAAAAUAAUAUAAAAUAAAACAUGAGGAUCACCCAUGUAGAAGGGCCAAAAUAAA [LRO022_Exclusion NG 2] | 187 nM | 83.3 nM |  | 
2 | AGCGGUGCGUGUGUUGUGACACAUGAGGAUCACCCAUGUAGGAAGGAUAUGCAGUUGGGCACGCGGCAGAAGGUCCGACAUGGA [Riuscein] | 58.6 nM | 529 nM |  | 
3 | GCGUGUGGAUCAGGAUAUUACAUGAGGAUCACCCAUGUAGGCAUGAGGGUCACCCGUGUUGUGUGUAAGAAGGGAUCGCCCGUG [Exclusion2] | 74.1 nM | 46 nM |  | 
4 | GGACUCACUUGAGGAUAUCGAGUGGAUAACACUCGAGAAGGCAGGAAAACCUGAGGAUCACCCAGGUAAGAGUCCAAUAAUAAU [Same State NG1 - A3C, U17G Submission 3D] |  |  | 14.4 nM | 13.2 nM
5 | GGAUCCAUCACAGGAUAUGCUGGACUUUGUCCAGCAGAAGGGUGAAACAUGAGGAUCACCCAUGUAAAGGAUCCUAUAUUUAAU [Denovo 26] |  |  | 34.3 nM | 291 nM
6 | GUAGCAUACCGAGGAUAUUCAUAUAAUAAAUAAACAUGAGGACCACCCAUGUGGCGAAAGCCUUGGGAGAAGGCGGAAUGCUAC [Xeonanis 20 - mod55 1] |  |  | 70.9 nM | 
7 | GUAGCUAUCGCAGGAUAUCCUCAGGCGAAAGCCACAUGAGGAUCACCCAUGUAAUUAAAGAAAUUGGAGAAGGGCGAUAGCUAC [jl-sng2-2.38 Eli mod] |  |  | 36.4 nM | 571 nM
8 | GUAGCUAUCGGAGGAUAUUCAUAGCGGAAACGCACAUGAGGAUCACCCAUGUGGCGAAAGCCUUGGGAGAAGGCCGAUAGCUAC [jl-sng2-2.30 Eli mod] |  |  | 17.7 nM | 99.3 nM

— the supplement of paper PMC9170038
